Results reported in patent publication US20200123268A1 (UNIVERSIT DEGLI STUDI MAGNA GRAECIA CATANZARO, published 2020).

T1: human CD43, endogenous, on primary cells and cell lines that carry the UMG1 epitope (human, UniProt P16150 20-400, native glycosylation of the cell concerned)
T1 construct: also called UMG1 antigen; the target
T1 sequence: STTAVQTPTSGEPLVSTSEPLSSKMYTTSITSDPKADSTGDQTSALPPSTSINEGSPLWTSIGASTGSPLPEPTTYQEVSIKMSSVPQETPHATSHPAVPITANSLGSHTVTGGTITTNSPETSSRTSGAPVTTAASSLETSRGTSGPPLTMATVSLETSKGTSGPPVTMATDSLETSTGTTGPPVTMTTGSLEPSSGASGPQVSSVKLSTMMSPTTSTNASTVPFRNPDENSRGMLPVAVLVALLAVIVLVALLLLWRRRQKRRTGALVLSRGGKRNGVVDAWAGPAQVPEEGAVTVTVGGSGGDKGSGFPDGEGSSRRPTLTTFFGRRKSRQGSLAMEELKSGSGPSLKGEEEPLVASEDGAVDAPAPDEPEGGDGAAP

B1: humanized UMG1 antibody H3-L1 (VH3 + VL1) (antibody, IgG1, V domains shown)
VH: EVQLVESGGGLVQPGGSLRLSCVASGFTFSSFGMHWVRQAPGKGLEWVAYISSGSGNFYYVDTVKGRFTISRDNAKNSLYLQMNSLRAEDTAVYYCARSTYYHGSRGAMDYWGQGTLVTVSS
VL: EIVLTQSPATLSLSPGERATLSCSASSSVSSMYWYQQKPGLAPRLLIYDTSKMASGIPDRFSGSGSGTDFTLTISRLEPEDFAVYYCQQWSSYPPITFGQGTRLEIK
notes: The label follows the pattern H3-L4
B2: humanized UMG1 antibody H3-L3 (VH3 + VL3) (antibody, IgG1, V domains shown)
VH: EVQLVESGGGLVQPGGSLRLSCVASGFTFSSFGMHWVRQAPGKGLEWVAYISSGSGNFYYVDTVKGRFTISRDNAKNSLYLQMNSLRAEDTAVYYCARSTYYHGSRGAMDYWGQGTLVTVSS
VL: QVVMTQSPAFLSVTPGEKVTITCSASSSVSSMYWYQQKPDQAPKLLIYDTSKMASGVPSRFSGSGSGTDFTFTISSLEAEDAATYYCQQWSSYPPITFGGGTKVEIK
notes: as for B1
B3: humanized UMG1 antibody H4-L1 (VH4 + VL1) (antibody, IgG1, V domains shown)
VH: QVQLVESGGGVVQPGGSLRLSCVASGFTFSSFGMHWVRQAPGKGLEWVAYISSGSGNFYYVDTVKGRFTISRDNSKNTLYLQMNSLRAEDTAVYYCARSTYYHGSRGAMDYWGQGTLVTVSS
VL: EIVLTQSPATLSLSPGERATLSCSASSSVSSMYWYQQKPGLAPRLLIYDTSKMASGIPDRFSGSGSGTDFTLTISRLEPEDFAVYYCQQWSSYPPITFGQGTRLEIK
notes: as for B1
B4: humanized UMG1 antibody H4-L2 (VH4 + VL2) (antibody, IgG1, V domains shown)
VH: QVQLVESGGGVVQPGGSLRLSCVASGFTFSSFGMHWVRQAPGKGLEWVAYISSGSGNFYYVDTVKGRFTISRDNSKNTLYLQMNSLRAEDTAVYYCARSTYYHGSRGAMDYWGQGTLVTVSS
VL: EIALTQSPATLSLSPGERATLSCSASSSVSSMYWYQLKPGLAPRLLIYDTSKMASGIPIRFSGSGSGTDFTLTVSRVEPEDFAVYYCQQWSSYPPITFGQGTRLEIK
notes: as for B1
B5: humanized UMG1 antibody H1-L1 (VH1 + VL1) (antibody, IgG1, V domains shown)
VH: EVQLVESGGGLVQPGGSLRLSCAASGFTFSSFGMHWVRQAPGKGLEWVSYISSGSGNFYYVDTVKGRFTISRDNAKNSLYLQMNSLRAEDTAVYYCARSTYYHGSRGAMDYWGQGTLVTVSS
VL: EIVLTQSPATLSLSPGERATLSCSASSSVSSMYWYQQKPGLAPRLLIYDTSKMASGIPDRFSGSGSGTDFTLTISRLEPEDFAVYYCQQWSSYPPITFGQGTRLEIK
notes: as for B1
B6: humanized UMG1 antibody H2-L3 (VH2 + VL3) (antibody, IgG1, V domains shown)
VH: EVQLVESGGGLVQPGGSLRLSCVASGFTFSSFGMHWVRQAPGKGLEWVSYISSGSGNFYYVDTVKGRFTISRDNAKNSLYLQMNSLRAEDTAVYYCARSTYYHGSRGAMDYWGQGTLVTVSS
VL: QVVMTQSPAFLSVTPGEKVTITCSASSSVSSMYWYQQKPDQAPKLLIYDTSKMASGVPSRFSGSGSGTDFTFTISSLEAEDAATYYCQQWSSYPPITFGGGTKVEIK
notes: as for B1
B7: humanized UMG1 antibody H4-L3 (VH4 + VL3) (antibody, IgG1, V domains shown)
VH: QVQLVESGGGVVQPGGSLRLSCVASGFTFSSFGMHWVRQAPGKGLEWVAYISSGSGNFYYVDTVKGRFTISRDNSKNTLYLQMNSLRAEDTAVYYCARSTYYHGSRGAMDYWGQGTLVTVSS
VL: QVVMTQSPAFLSVTPGEKVTITCSASSSVSSMYWYQQKPDQAPKLLIYDTSKMASGVPSRFSGSGSGTDFTFTISSLEAEDAATYYCQQWSSYPPITFGGGTKVEIK
notes: as for B1
B8: humanized UMG1 antibody H2-L2 (VH2 + VL2) (antibody, IgG1, V domains shown)
VH: EVQLVESGGGLVQPGGSLRLSCVASGFTFSSFGMHWVRQAPGKGLEWVSYISSGSGNFYYVDTVKGRFTISRDNAKNSLYLQMNSLRAEDTAVYYCARSTYYHGSRGAMDYWGQGTLVTVSS
VL: EIALTQSPATLSLSPGERATLSCSASSSVSSMYWYQLKPGLAPRLLIYDTSKMASGIPIRFSGSGSGTDFTLTVSRVEPEDFAVYYCQQWSSYPPITFGQGTRLEIK
notes: as for B1
B9: humanized UMG1 antibody H3-L2 (VH3 + VL2) (antibody, IgG1, V domains shown)
VH: EVQLVESGGGLVQPGGSLRLSCVASGFTFSSFGMHWVRQAPGKGLEWVAYISSGSGNFYYVDTVKGRFTISRDNAKNSLYLQMNSLRAEDTAVYYCARSTYYHGSRGAMDYWGQGTLVTVSS
VL: EIALTQSPATLSLSPGERATLSCSASSSVSSMYWYQLKPGLAPRLLIYDTSKMASGIPIRFSGSGSGTDFTLTVSRVEPEDFAVYYCQQWSSYPPITFGQGTRLEIK
notes: as for B1
B10: humanized UMG1 antibody H1-L4 (VH1 + VL4) (antibody, IgG1, V domains shown)
VH: EVQLVESGGGLVQPGGSLRLSCAASGFTFSSFGMHWVRQAPGKGLEWVSYISSGSGNFYYVDTVKGRFTISRDNAKNSLYLQMNSLRAEDTAVYYCARSTYYHGSRGAMDYWGQGTLVTVSS
VL: QVVMTQSPAFLSVTPGEKVTITCSASSSVSSMYWYQLKPDQAPKLLIYDTSKMASGVPIRFSGSGSGTDFTFTVSSVEAEDAATYYCQQWSSYPPITFGGGTKVEIK
notes: as for B1
B11: humanized UMG1 antibody H1-L2 (VH1 + VL2) (antibody, IgG1, V domains shown)
VH: EVQLVESGGGLVQPGGSLRLSCAASGFTFSSFGMHWVRQAPGKGLEWVSYISSGSGNFYYVDTVKGRFTISRDNAKNSLYLQMNSLRAEDTAVYYCARSTYYHGSRGAMDYWGQGTLVTVSS
VL: EIALTQSPATLSLSPGERATLSCSASSSVSSMYWYQLKPGLAPRLLIYDTSKMASGIPIRFSGSGSGTDFTLTVSRVEPEDFAVYYCQQWSSYPPITFGQGTRLEIK
notes: as for B1
B12: humanized UMG1 antibody H1-L3 (VH1 + VL3) (antibody, IgG1, V domains shown)
VH: EVQLVESGGGLVQPGGSLRLSCAASGFTFSSFGMHWVRQAPGKGLEWVSYISSGSGNFYYVDTVKGRFTISRDNAKNSLYLQMNSLRAEDTAVYYCARSTYYHGSRGAMDYWGQGTLVTVSS
VL: QVVMTQSPAFLSVTPGEKVTITCSASSSVSSMYWYQQKPDQAPKLLIYDTSKMASGVPSRFSGSGSGTDFTFTISSLEAEDAATYYCQQWSSYPPITFGGGTKVEIK
notes: as for B1
B13: humanized UMG1 antibody H2-L4 (VH2 + VL4) (antibody, IgG1, V domains shown)
VH: EVQLVESGGGLVQPGGSLRLSCVASGFTFSSFGMHWVRQAPGKGLEWVSYISSGSGNFYYVDTVKGRFTISRDNAKNSLYLQMNSLRAEDTAVYYCARSTYYHGSRGAMDYWGQGTLVTVSS
VL: QVVMTQSPAFLSVTPGEKVTITCSASSSVSSMYWYQLKPDQAPKLLIYDTSKMASGVPIRFSGSGSGTDFTFTVSSVEAEDAATYYCQQWSSYPPITFGGGTKVEIK
notes: as for B1
B14: humanized UMG1 antibody H4-L4 (VH4 + VL4) (antibody, IgG1, V domains shown)
VH: QVQLVESGGGVVQPGGSLRLSCVASGFTFSSFGMHWVRQAPGKGLEWVAYISSGSGNFYYVDTVKGRFTISRDNSKNTLYLQMNSLRAEDTAVYYCARSTYYHGSRGAMDYWGQGTLVTVSS
VL: QVVMTQSPAFLSVTPGEKVTITCSASSSVSSMYWYQLKPDQAPKLLIYDTSKMASGVPIRFSGSGSGTDFTFTVSSVEAEDAATYYCQQWSSYPPITFGGGTKVEIK
notes: as for B1
B15: humanized UMG1 antibody H2-L1 (VH2 + VL1) (antibody, IgG1, V domains shown)
VH: EVQLVESGGGLVQPGGSLRLSCVASGFTFSSFGMHWVRQAPGKGLEWVSYISSGSGNFYYVDTVKGRFTISRDNAKNSLYLQMNSLRAEDTAVYYCARSTYYHGSRGAMDYWGQGTLVTVSS
VL: EIVLTQSPATLSLSPGERATLSCSASSSVSSMYWYQQKPGLAPRLLIYDTSKMASGIPDRFSGSGSGTDFTLTISRLEPEDFAVYYCQQWSSYPPITFGQGTRLEIK
notes: as for B1
B16: ch-UMG1 (chimeric antibody: murine UMG1 variable regions on human IgG1 constant regions) (antibody, V domains shown)
VH: DVQLVESGGGLVQPGGSRKLSCVASGFTFSSFGMHWVRQAPEKGLEWVAYISSGSGNFYYVDTVKGRFTISRDNPKNTLFLQMTSLRSEDTAMYYCARSTYYHGSRGAMDYWGQGTSVTVSS
VL: QIALTQSPAIMSASPGEKVTMTCSASSSVSSMYWYQLKPGSSPRLLIYDTSKMASGVPIRFSGSGSGTSFSLTVSRVEAEDAATYYCQQWSSYPPITFGAGSKLELKR
notes: also called chimeric mAb ch-UMG1; chimeric mAb

molecular target: T1, human CD43, endogenous, on primary …; assay: flow cytometry, antibody at 1 ug/ml, FITC mouse anti-human IgG secondary; histogram grid, cell line not labelled (HPB-ALL or H9)
Protocol: (§1) Each screening was performed twice, for a total of 4 replicates.

Binding result, binds:
B1, B2, B3, B4, B5, B6, B7, B8, B9, B10, B11, B12, B13, B14, B15

molecular target: T1, human CD43, endogenous, on primary …; assay: flow cytometry, antibody at 1 ug/ml, FITC mouse anti-human IgG secondary; cell line of the histograms not labelled (HPB-ALL or H9)
Protocol: as §1

Binding result, binds:
B16
